# Measured values as given in patent publication US20110111406A1 (published 2011).
# Positions count from the first letter of the chain named.
# T1: recombinant soluble human IL-6 receptor (SR344) (human, UniProt P08887 20-344)
# T1 construct: In the 'membrane-type IL-6 receptor' Biacore assays the same SR344 was biotinylated and immobilized via streptavidin; also called soluble IL-6 receptor; membrane-type IL-6 receptor (as biotinylated SR344 immobilized on the sensor chip)
# T1 sequence (looked up): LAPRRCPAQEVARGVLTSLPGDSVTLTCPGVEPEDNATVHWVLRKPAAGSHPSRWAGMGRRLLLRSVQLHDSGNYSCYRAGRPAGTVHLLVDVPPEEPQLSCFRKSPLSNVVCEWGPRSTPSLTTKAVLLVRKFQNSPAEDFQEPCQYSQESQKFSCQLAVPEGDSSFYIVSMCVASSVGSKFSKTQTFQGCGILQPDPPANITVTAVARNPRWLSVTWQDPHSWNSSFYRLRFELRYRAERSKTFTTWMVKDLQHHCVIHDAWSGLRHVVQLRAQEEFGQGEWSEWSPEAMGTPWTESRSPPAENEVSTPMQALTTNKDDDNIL
# B1: Fv2-IgG1 (antibody, V domains shown)
# VH: QVQLQESGPGLVKPSETLSLTCAVSGYSISHDHAWSWVRQPPGEGLEWIGHISYSGITNYNPHLQDRVTISRDTSKNQFSLKLSSVTAADTAAYYCARFLARITAHDHWGEGTLVTVSS
# VL: DIQMTQSPSSLSASVGDSVTITCQASQDISSHLNWYQQKPGKAPELLIYYGSHLHSGVPSRFSGSGSGTDFTFTISSLEAEDAATYYCGQGNRLPYTFGQGTKVEIE
# notes: also called VH1-IgG1/L82
# B2: Fv4-M58 (antibody)
# heavy: QVQLQESGPGLVKPSETLSLTCAVSGHSISHDHAWSWVRQPPGEGLEWIGFISYSGITNYNPSLQGRVTISRDNSKNTLYLQMNSLRAEDTAVYYCARSLARTTAMDYWGEGTLVTVSSASTKGPSVFPLAPSSKSTSGGTAALGCLVKDYFPEPVTVSWNSGALTSGVHTFPAVLQSSGLYSLSSVVTVPSSNFGTQTYTCNVDHKPSNTKVDKTVERKSCVECPPCPAPPVAGPSVFLFPPKPKDTLMISRTPEVTCVVVDVSQEDPEVQFNWYVDGVEVHNAKTKPREEQFNSTFRVVSVLTVVHQDWLNGKEYKCKVSNKGLPAPIEKTISKTKGQPREPQVYTLPPSQEEMTKNQVSLTCLVKGFYPSDIAVEWESNGQPENNYKTTPPMLDSDGSFFLYSKLTVDKSRWQEGNVFSCSVMHEALHNHYTQKSLSLSP
# light: DIQMTQSPSSLSASVGDSVTITCQASTDISSHLNWYQQKPGKAPELLIYYGSHLLSGVPSRFSGSGSGTDFTFTISSLEAEDAATYYCGQGNRLPYTFGQGTKVEIERTVAAPSVFIFPPSDEQLKSGTASVVCLLNNFYPREAKVQWKVDNALQSGNSQESVTEQDSKDSTYSLSSTLTLSKADYEKHKVYACEVTHQGLSSPVTKSFNRGEC
# notes: also called VH3-M58/VL3-CK
# B3: Fv3-M71 (antibody, human IgG2, kappa)
# heavy: QVQLQESGPGLVKPSETLSLTCAVSGHSISHDHAWSWVRQPPGEGLEWIGFISYSGITNYNPTLQGRVTISRDNSKNTLYLQMNSLRAEDTAVYYCARSLARTTAMDYWGEGTLVTVSSASTKGPSVFPLAPCSRSTSESTAALGCLVKDYFPEPVTVSWNSGALTSGVHTFPAVLQSSGLYSLSSVVTVPSSNFGTQTYTCNVDHKPSNTKVDKTVERKCCVECPPCPAPPVAGPSVFLFPPKPKDTLMISRTPEVTCVVVDVSHEDPEVQFNWYVDGVEVHNAKTKPREEQFNSTFRVVSVLTVVHQDWLNGKEYKCKVSNKGLPAPIEKTISKTKGQPREPQVYTLPPSREEMTKNQVSLTCLVKGFYPSDIAVEWESNGQPENNYKTTPPMLDSDGSFFLYSKLTVDKSRWQQGNVFSCSVMHEALHAHYTQKSLSLSPGK
# light: B2 light with T27R
# notes: also called VH4-M71/VL1-CK
# B4: Fv1-M73 (antibody)
# heavy: QVQLQESGPGLVKPSETLSLTCAVSGYSISHDHAWSWVRQPPGEGLEWIGHISYSGITNYNPHLQDRVTISRDTSKNQFSLKLSSVTAADTAVYYCARFLARITAHDHWGEGTLVTVSSASTKGPSVFPLAPSSKSTSGGTAALGCLVKDYFPEPVTVSWNSGALTSGVHTFPAVLQSSGLYSLSSVVTVPSSNFGTQTYTCNVDHKPSNTKVDKTVERKSCVECPPCPAPPVAGPSVFLFPPKPKDTLMISRTPEVTCVVVDVSQEDPEVQFNWYVDGVEVHNAKTKPREEQFNSTFRVVSVLTVVHQDWLNGKEYKCKVSNKGLPAPIEKTISKTKGQPREPQVYTLPPSQEEMTKNQVSLTCLVKGFYPSDIAVEWESNGQPENNYKTTPPMLDSDGSFFLYSKLTVDKSRWQEGNVFSCSVMHEALHAHYTQKSLSLSP
# light: B2 light with T27R, L55E
# notes: also called VH2-M73/VL2-CK
# B5: Fv1-M71 (antibody, human IgG2, kappa)
# heavy: QVQLQESGPGLVKPSETLSLTCAVSGYSISHDHAWSWVRQPPGEGLEWIGHISYSGITNYNPHLQDRVTISRDTSKNQFSLKLSSVTAADTAVYYCARFLARITAHDHWGEGTLVTVSSASTKGPSVFPLAPCSRSTSESTAALGCLVKDYFPEPVTVSWNSGALTSGVHTFPAVLQSSGLYSLSSVVTVPSSNFGTQTYTCNVDHKPSNTKVDKTVERKCCVECPPCPAPPVAGPSVFLFPPKPKDTLMISRTPEVTCVVVDVSHEDPEVQFNWYVDGVEVHNAKTKPREEQFNSTFRVVSVLTVVHQDWLNGKEYKCKVSNKGLPAPIEKTISKTKGQPREPQVYTLPPSREEMTKNQVSLTCLVKGFYPSDIAVEWESNGQPENNYKTTPPMLDSDGSFFLYSKLTVDKSRWQQGNVFSCSVMHEALHAHYTQKSLSLSPGK
# light: B2 light with T27R, L55E
# notes: also called VH2-M71/VL2-CK
# B6: Fv4-IgG1 (antibody)
# heavy: not shown
# light: B2 light
# notes: also called VH3-IgG1/VL3-CK
# B7: Fv4-IgG2 (antibody)
# heavy: B2 heavy with S133C, K135R, G139E, G140S, S221C, Q266H, Q353R, E417Q
# light: B2 light
# notes: also called Fv4-IgG2ΔGK; VH3-IgG2ΔGK/VL3-CK
# B8: Fv3-M73 (antibody)
# heavy: B2 heavy with S63T, N432A
# light: B2 light with T27R
# notes: also called VH4-M73/VL1-CK
# B9: Fv4-M73 (antibody)
# heavy: B2 heavy with N432A
# light: B2 light
# notes: also called VH3-M73/VL3-CK
# B10: H54/L28-IgG1 (antibody, V domains shown)
# VH: B1 VH with H31D, H33Q, H51Y, H63S, Q65K, D66G, F99S, I103T, H106M, H108Y
# VL: B1 VL with H32Y, H53E, G89Q, R93S
# notes: tested as IgG1
# Target: T1, recombinant soluble human IL-6 receptor …
# Experiment: Biacore T100, biotinylated SR344 immobilized via streptavidin (membrane-type IL-6 receptor model), antibody as analyte; ratio of kd at pH 5.8 to pH 7.4
# Experimental: (§1) Binding to the membrane-type IL-6 receptor was evaluated by evaluating binding to the IL-6 receptor immobilized on a sensor chip. SR344 was biotinylated in accordance with a method known among persons with ordinary skill in the art, and the biotinylated SR344 was immobilized on the sensor chip via streptavidin using the affinity between streptavidin and biotin. All the measurements were carried out at 37° C. The mobile phase buffer was 10 mM MES (pH 5.8), 150 mM NaCl and 0.05% Tween 20.
# (§2) The pH-dependently-binding clones were injected under the condition of pH 7.4 to allow them to bind to SR344, and then, the pH-dependent dissociation of each clone at the pH of the mobile phase, pH 5.8, was observed. The results are shown in FIG. 21 (results for Fv1-M71, Fv1-M73, Fv3-M71, and Fv3-M73 are shown in FIG. 21, while results for other clones are shown in FIGS. 17 and 19). Analyses were carried out in the same manner as in Example 10 and the pH dependencies of the dissociation rate constants of all of the eleven types of clones are shown in Table 12.
row,kd(pH 5.8)/kd(pH 7.4),Binder
1,7.18,B1
2,17.6,B2
3,10.7,B3
4,8.8,B4
5,11.3,B5
6,5.56,B6
7,17,B7
8,10.9,B8
9,10.1,B9

# Target: T1, recombinant soluble human IL-6 receptor …
# Experiment: Biacore T100, antibody captured on protein A/G, SR344 as analyte, 37C; ratio of kd at pH 5.8 to pH 7.4
# Experimental: (§3) Kinetic analysis of antigen-antibody reactions at pH 7.4 and pH 5.8 was carried out using Biacore T100 (GE Healthcare) for the four types of antibodies prepared: WT-IgG1, H54/L28-IgG1, H170/L82-IgG1, and Fv4-IgG1(buffer: 10 mM MES (pH 7.4 or pH 5.8), 150 mM NaCl, 0.05% Surfactant-P20). The antibodies were bound to a sensor chip on which recomb-protein A/G (Pierce) was immobilized by amine coupling, and SR344 adjusted to an appropriate concentration was injected therein as an analyte. The association with and dissociation from SR344 of each type of antibody were observed on a real-time basis. All the measurements were carried out at 37° C. Association rate constants kₐ (1/Ms) and dissociation rate constants kd (1/s) were calculated using Biacore T100 Evaluation Software (GE Healthcare), and dissociation constants KD (M) were calculated based on those values (Table 17).
row,kd(pH 5.8)/kd(pH 7.4),Binder
1,2,B10
2,38.8,B6

# Target: T1, recombinant soluble human IL-6 receptor …
# Experiment: Biacore T100, biotinylated SR344 immobilized via streptavidin (membrane-type IL-6 receptor model), antibody as analyte; ratio of kd at pH 5.8 to pH 7.4
# Remark: another data set of the same source
# Experimental: as §1, §2
row,kd(pH 5.8)/kd(pH 7.4),Binder
1,17.6,B2
2,5.56,B6
3,17,B7
4,10.1,B9

# Target: T1, recombinant soluble human IL-6 receptor …
# Experiment: Biacore T100, antibody captured on protein A/G, SR344 as analyte, 37C; ratio of KD at pH 5.8 to pH 7.4
# Experimental: as §3
row,KD(pH5.8)/KD(pH7.4),Binder
1,0.7,B10
2,27.3,B6

# Target: T1, recombinant soluble human IL-6 receptor …
# Experiment: Biacore T100, biotinylated SR344 immobilized via streptavidin (membrane-type IL-6 receptor model), antibody as analyte; ratio of kd at pH 5.8 to pH 7.4
# Remark: another data set of the same source
# Experimental: as §1, §2
row,kd(pH 5.8)/kd(pH 7.4),Binder
1,7.18,B1
2,5.56,B6
